Literature values as cited in patent publication US20240247069A1, “FGFR3 BINDING MOLECULES AND METHODS OF USE THEREOF” (Regeneron Pharmaceuticals, Inc., priority 2023, published 2024).
Where a chain is given by its changes, count along the chain named. Names and notes keep the numbering of the source.

B1: KE94: anti-FGFR3 IIIb and IIIc antibody of WO 2022/040560 A1; VH SEQ ID NO:82, VL SEQ ID NO:83 (antibody, V domains shown)
VH: QVQLQQSGAELVRPGASVTLSCKASGSTFTDFEIHWVKQTPVHGLEWIGAIDPETGGTAYNQKFKGKAILTAVKSSSTAYMGLRSLTSEDSAVYYCTRNYDGYSRTMDYWGQGTSVTVSS
VL: NIMMTQSPSSLAVSAGEKVTMSCKSSQSVLYSSNQKNYLAWYQQKPGQSPKLLIYWASTRESGVPDRFTGSGSGTDFSLSISSVQTEDLAVYYCHQYLSSYTFGGGTRLEMK
B2: KE35: anti-FGFR3 IIIb and IIIc antibody of WO 2022/040560 A1; VH SEQ ID NO:74, VL SEQ ID NO:75 (antibody, V domains shown)
VH: EVQLQQSGPELVKPGASVKMSCKASGYTFTDYNMHWVKQSHGKSLEWIGYINPNNGGTRYNQKFKGKATLTVNKSSSTAYMELRSLTSEDSAVYYCARERDYDGAMDYWGQGTSVTVSS
VL: DIQMTQSPSSLSASLGGKVTITCKASQDINKFIAWYQHKPGKGPRLLIHYTSTLQPGIPSRFSGSGSGRDYSFSISNLEPEDIATYYCLQYDNLLWTFGGGTKLEIK
B3: KE42: anti-FGFR3 IIIb and IIIc antibody of WO 2022/040560 A1; VH SEQ ID NO:76, VL SEQ ID NO:77 (antibody, V domains shown)
VH: B2 VH with E46Q, R59N, K63N, G66D, S77T, A105S, Y108F
VL: B2 VL with Y87F
B4: KC18: anti-FGFR3 IIIb and IIIc antibody of WO 2022/040560 A1; VH SEQ ID NO:72, VL SEQ ID NO:73 (antibody, V domains shown)
VH: QVQLQQSGAELVRPGASVTLSCKASGDTFTDFEIHWVKQTPVHGLEWIGDIDPETGGTAYNQKFRGRAMLTADRSSSTAYMELRSLTSEDSAVYYCTRTYDGYPYAMDYWGQGTSVTVSS
VL: DIVMSQSPSSLAVSVGEKVTMSCKSSQSLLYSNNQKNYLAWYQQKPGQSPKLLIYWASTRESGVPDRFTGSGSGTDFTLTISSVKAEDLAVYYCQQYYSYRTFGGGTKLEIK
B5: KE63: anti-FGFR3 IIIb and IIIc antibody of WO 2022/040560 A1; VH SEQ ID NO:80, VL SEQ ID NO:81 (antibody, V domains shown)
VH: B1 VH with T30S, A50G, V73D, K74R, G82E, R105Q
VL: B1 VL with S78T, S80T, T86A, R108K
B6: KE58: anti-FGFR3 IIIb and IIIc antibody of WO 2022/040560 A1; VH SEQ ID NO:78, VL SEQ ID NO:79 (antibody, V domains shown)
VH: EVQLQQSGPDLVKPGASVKISCKASGYTVTDYYMNWVKQSHGKSLEWIGDINPNNGVTTYNQKFKDKATLTVDKSSSTAYMELRSLTSEDSAVYYCAREEDFDGFDYWGQGTTLTVSS
VL: DIVMTQSHKFMSTSVGDRVSITCKASQDVSTGVAWYQQKPGQSPQLLIYWASTRHTGVPDRFTGSGSGTDYILTIRSVQAEDLALYYCQQHYSTPLTFGAGTKLELK
B7: MS-Pro-11: anti-FGFR3 Ig-like domain 3 antibody of WO 2002/102972 A2; VH SEQ ID NO:30, VL SEQ ID NO:31 (antibody, V domains shown)
VH: QVQLVQSGAEVKKPGASVKVSCKASGYTFTSYYMHWVRQAPGQGLEWMGWINPNSGGTNYAQKFQGRVTMTRDTSISTAYMELSSLRSEDTAVYYCARYYGSSLYHYVFGGFIDYWGQGTLVTVSS
VL: DIALTQPASVSGSPGQSITISCTGTSSDVGGYNYVSYQQHPGKAPKLMIYDVSNRPSGVSNRFSGSKSGNTASLTISGLQAEDEADYYCQSHHFYEVFGGGTKLTVLGQ
B8: MS-Pro-26: anti-FGFR3 Ig-like domain 3 antibody of WO 2002/102972 A2; VH SEQ ID NO:36, VL SEQ ID NO:37 (antibody, V domains shown)
VH: QVQLVQSGAEVKKPGASVKVSCKASGYTFTSYYMHWVRQAPGQGLEWMGWINPNSGGTNYAQKFQGRVTMTRDTSISTAYMELSSLRSEDTAVYYCARGYWYAYFTYINYGYFDNWGQGTLVTVSS
VL: DIALTQPASVSGSPGQSITISCTGTSSDVGGYNYVSWYQQHPGKAPKLMIYDVSNRPSGVSNRFSGSKSGNTASLTISGLQAEDEADYYCQSYDNNSDWFGGGTKLTVLGQ
B9: MS-Pro-59: anti-FGFR3 Ig-like domain 3 antibody of WO 2002/102972 A2; VH SEQ ID NO:28, VL SEQ ID NO:29 (antibody, V domains shown)
VH: QVQLQQSGPGLVKPSQTLSLTCAISGDSVSSNSAAWNWIRQSPGRGLEWLGRTYYRSKWYNDYAVSVKSRITINDTSKNQFSLQLNSVTPEDTAVYYCARSYYPDFDYWGQGTVTVSS
VL: DIELTQPPSVSVAPGQTARISCSGDALGDKYASWYQQKPGQAPVLVIYDDSDRPSGIPERFSGSNSGNTATLTISGTQAEDEADYYCQSYDGPDLWVFGGGTKLTVLGQ
B10: 184.6.1.N54S: anti-FGFR3 Ig-like domain 3 antibody of WO 2010/111367 A1; VH SEQ ID NO:63, VL SEQ ID NO:64 (antibody, V domains shown)
VH: EVQLVESGGGLVQPGGSLRLSCAASGFTFTSTGISWVRQAPGKGLEWVGRIYPTSGSTNYADSVKGRFTISADTSKNTAYLQMNSLRAEDTAVYYCARARTYGIYDLYVDYTEYVMDYWGQGTLV
VL: DIQMTQSPSSLSASVGDRVTITCRASQDVDTSLAWYQQKPGKAPKLLIYSASFLYSGVPSRFSGSGSGTDFTLTISSLQPEDFATYYCQQSTGHPQTFGQGTKVEIKR
B11: 184.6.58: anti-FGFR3 Ig-like domain 3 antibody of WO 2010/111367 A1 (aka R3Mab); VH SEQ ID NO:65, VL SEQ ID NO:66; comparator REGN6331 (antibody, V domains shown)
VH: B10 VH with G49A, S55N
VL: B10 VL with T31I, S91G, T92A, H94N, Q96Y
notes: anti-FGFR3 Ig-like domain 3 antibody of WO 2010/111367 A1 (aka R3Mab); comparator REGN6331
B12: 184.6.62: anti-FGFR3 Ig-like domain 3 antibody of WO 2010/111367 A1; VH SEQ ID NO:67, VL SEQ ID NO:68 (antibody, V domains shown)
VH: B10 VH with T30S, S31T, G49A, T54L, S55Y, N59H
VL: B10 VL with D30S, S32A, L33V, S91T, T92Y, G93T, H94T, P95S, Q96L
B13: 184.6.1.NS D30E: anti-FGFR3 Ig-like domain 3 antibody of WO 2010/111367 A1; VH SEQ ID NO:63, VL SEQ ID NO:69 (antibody, V domains shown)
VH: B10 VH
VL: B10 VL with D30E
B14: FGA0002: anti-FGFR3 (S249C mutant) antibody of WO 2021/010326 A1; VH SEQ ID NO:84, VL SEQ ID NO:85 (antibody, V domains shown)
VH: QELVESGGGLVQPGGSLKLSCKASGIDFSSYGISWVRQAPGKGLEWIAYIVPGFGIRNYANSVKGRFTISSDNAQNTVFLQMTSLTASDTATYFCARVPQYASSSGYYLPFNLWGPGTLVTVSS
VL: ALVMTQTPSPVSAAVGGTVTINCQASEDIYYNLAWFQQKPGQPPKLLIYRASTLASGVPSRFSGSGSGTEFTLTISDVQCDDAATYYCLGVYTYISADGNAFGGGTEVVVK
B15: FGA0007: anti-FGFR3 (S249C mutant) antibody of WO 2021/010326 A1; VH SEQ ID NO:88, VL SEQ ID NO:89 (antibody, V domains shown)
VH: QSVEESGGRLVTPGTPLTLTCTVSGFSLSSYPMSWVRQAPGKGLEWIGIISSSGRTYYASWAKGRFTISKASSTTAALKMTSLTTEDTATYFCARGGVYKYDDYGDYVLNLWGRGTLVTVSS
VL: AIEMTQTPFSVSAAVGGTVTINCQASENIYSNLAWYQQKPGQPPKLLIYAASYLASGVPSRFKGSGSGTDYTLTISGVQCADAATYYCQCTLYSSTYGVAFGGGTEVVVK
B16: FGA0005: anti-FGFR3 (S249C mutant) antibody of WO 2021/010326 A1; VH SEQ ID NO:86, VL SEQ ID NO:87 (antibody, V domains shown)
VH: QSLEESGGRLVTPGTPLTLTCTASGFSLSTYWICWVRQAPGEGLEWIGYISSSGNTYYASWAKGRFTISKTSSTTVDLKMTSLTTEDTATYFCGGHNSDYITGWALDPWGPGTLVTVSS
VL: AAVLTQTASPMSAAVGGTVTINCQSSKSVYRDKWLSWFQQKPGQPPKLLIYGASNLASGVSSRFKGSGSGTQFTLTISDVQCDDAATYYCLGGYSDNSEDAFGGGTEVVVK
B17: B-701: anti-FGFR3 antibody of WO 2016/134234 A1; VH SEQ ID NO:70, VL SEQ ID NO:71 (antibody, V domains shown)
VH: EVQLVESGGGLVQPGGSLRLSCAASGFTFTSTGISWVRQAPGKGLEWVGRIYPTSGSTNYADSVKGRFTISADTSKNTAYLQMNSLRAEDTAVYYCARTYGIYDLYVDYTEYVMDYWGQGTLV
VL: B10 VL with Q37K

system: FGFR3; conditions: Table T-3, exemplary FGFR3 D3 binding sequences from cited PCT publications

| Molecule | Activity |
| --- | --- |
| B1 | Antagonistic |
| B2 | Antagonistic |
| B3 | Antagonistic |
| B4 | Antagonistic |
| B5 | Antagonistic |
| B6 | Antagonistic |
| B7 | Antagonistic |
| B8 | Antagonistic |
| B9 | Antagonistic |
| B10 | Antagonistic |
| B11 | Antagonistic |
| B12 | Antagonistic |
| B13 | Antagonistic |

same assay, conditions: literature antibodies, sequences from cited PCT publications

| Molecule | Activity |
| --- | --- |
| B14 | Antagonistic |
| B1 | Antagonistic |
| B15 | Antagonistic |
| B2 | Antagonistic |
| B3 | Antagonistic |
| B4 | Antagonistic |
| B5 | Antagonistic |
| B6 | Antagonistic |
| B16 | Antagonistic |
| B7 | Antagonistic |
| B8 | Antagonistic |
| B9 | Antagonistic |
| B10 | Antagonistic |
| B11 | Antagonistic |
| B12 | Antagonistic |
| B13 | Antagonistic |
| B17 | Antagonistic |
